From the supplement of paper PMC9170038 come the findings set out here.

The data set has as its system MS2 coat protein. Put plainly: apparent KD of MS2 coat protein; designed switch direction (-1 OFF switch, 1 ON switch): -1; higher = weaker reporter binding. The method, boiled down:
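Apparent KD, taken as the median over clusters for each design, was obtained by curve-fitting normalised cluster fluorescence. Designed RNA switches had been transcribed on Illumina chips by stalled E. coli RNA polymerase and titrated with SNAP-549-labelled MS2 coat protein, doubling from 0.7 or 1.5 nM to 3 µM.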

Where [1] appears, read: Eterna round: R95, input ligand: microRNA oligo, concentration not stated.
Where [2] appears, read: input ligand: microRNA oligo, concentration not stated.
[3] abbreviates: Eterna round: R95, input ligand: FMN 200 uM.
[4] abbreviates: Eterna round: R95, input ligand: none.

Turning to “CCAUCGAGUGUGAGGAUAUGCUGGUCCUUGGAUCAGCAGAAGGCACAUGAGGAUCACCCAUGUGAAUACGGUGG [JL bmx4 3.20] (puzzle: Brourd's mod of Exclusion 4)”, under setting [1], the “apparent KD of MS2 coat protein” value amounted to 28.3 nM.
Turning to “GGAUUCUCGCAAGGAUAUCGCUUACAUCCUAAGCGAGAAGGUGCUACCAACUUGAGGAUCACCCAAGUGACUUGGGCCUAAAUA [Mutated MS2 EX1.27] (Eterna round: R96, puzzle: Exclusion NG 1)”, the “apparent KD of MS2 coat protein” value (input ligand: FMN 200 uM) turned out to be 112 nM, the “apparent KD of MS2 coat protein” value under setting [2] came out at 34.2 nM and the “apparent KD of MS2 coat protein” value (input ligand: none) was 62.9 nM.
Take “ACAAGCUUUUAGAUUUUCAACAUGAGGAUCACCCAUGUUCGUCUUAUGCUAGUGCUAGUGCGGUGUACUGGUAUUGG [JL TOV1 3.79 sellena mod] (Eterna round: R97, puzzle: Sensor, turn-off variant 1)”: the “apparent KD of MS2 coat protein” value came to 19.2 nM (input ligand: FMN 200 uM) and 19.5 nM (input ligand: none).
In the same order, the values of “ACUUAUAGAGGAUAUACAGUUAAUUACAUGAGGAUCACCCAUGUUCUUCAAUGUAUAUAAGUAGAAGGCUAAAGGA [Mat - Exclusion 5 - Eli Mod - D6] (Eterna round: R97, puzzle: Exclusion 5)” are 198 nM and 19.3 nM.
Turning to “AAUAAAGGCCGAGGAUAUCGGAAAGGAAGUGUACGAGAAGGUGGCAAAAGAACAUGAGGAUCACCCAUGUGGGCCGAUCUUCCG [PowerStrip EXNG 1.4] (Eterna round: R96, puzzle: Exclusion NG 1)”, the “apparent KD of MS2 coat protein” value by setting is: (input ligand: FMN 200 uM) 33.3 nM; under setting [2], 28.8 nM; (input ligand: none) 29.9 nM.
As for “AAAACGUGAGGAUAUCCAAUAUAUGACAUGAGGAUCACCCAUGUUUCCACUCGUACCUCCGGAGAAGGCACAAUAA [Ex5 #76] (Eterna round: R97, puzzle: Exclusion 5)”, the “apparent KD of MS2 coat protein” value stood at 37.6 nM (input ligand: FMN 200 uM) and 56.2 nM (input ligand: none).
As for “UAUUAACAAGCUAGAUCUUACAUGAGGAUCACCCAUGUGCUCGUCUUAUAAGGUACUGUGACGAAAGUCACGGUACC [Sensor 3, v1 - 77] (puzzle: Sensor v3, turn-off variant 1)”, the “apparent KD of MS2 coat protein” value runs as follows: under setting [3], 22.7 nM; under setting [1], 149 nM; under setting [4], 22.5 nM.
“UUCACAUGGACAUAAGAUCACAUGAGGAUCACCCAUGUGAAUAACAAGCUUUUUGCUCGUCUUAUGUCCAAUAAUAU [Stov1/14-A3] (Eterna round: R97, puzzle: Sensor, turn-off variant 1)”: the “apparent KD of MS2 coat protein” value turned out to be 13.2 nM (input ligand: FMN 200 uM) and 13.2 nM (input ligand: none).
For “UAACUUUUAGUAAGGAUAUCGGUCCCAAGGGACAACGAGAAGGUACAUGAGGAUCACCCAUGUGAAAUAAGAAU [Mod of Zala 3 - Jieux - Brourd's Mod of Exclusion 4] (Eterna round: R97, puzzle: Brourd's mod of Exclusion 4)”, the “apparent KD of MS2 coat protein” value turned out to be 45.4 nM (input ligand: FMN 200 uM) and 21.1 nM (input ligand: none).
“CCGUGCACGCUGCGGUCCUACAUGAGGAUCACCCAUGUGGUCUGGUGGCGUGGGUCGCCGGACUUGGCUCGUCUUGA [salish99_S_TOV1_R5_021] (Eterna round: R97, puzzle: Sensor, turn-off variant 1)”: the “apparent KD of MS2 coat protein” value reads like this: (input ligand: FMN 200 uM) 18.8 nM; (input ligand: none) 19.2 nM.
Consider “AUAGGGUCAGGAUAUACGAGCAGGAGGAUGGAGCGGAGGCGGUAGAAGGGACAUGAGGAUCACCCAUGUAAGAA [JR_Exclu4_Sub052] (puzzle: Exclusion 4)”, for which the “apparent KD of MS2 coat protein” value was determined as 21.4 nM under setting [3], 16.3 nM under setting [1] and 19.2 nM under setting [4].
In the same order, the values of “CGUGACUGAGGAUAUCUAUAUUAUCACAUGAGGAUCACCCAUGUCCAGCGAAAGCUGGAGGGAGAAGGCAGUCACG [Fiskers Ex 5 - 28] (puzzle: Exclusion 5)” are 17.1 nM, 49.8 nM and 32.4 nM.
As for “GAGGAUGUAGGAUAUACUUAGGGUGAGCUCUAAGUGAAUCAACAUGAGGAUCACCCAUGUAGAAGGGCAGGACG [Eternabot (Original) Solution 37] (Eterna round: R97, puzzle: Exclusion 2)”, the “apparent KD of MS2 coat protein” value came out at 248 nM (input ligand: FMN 200 uM) and 122 nM (input ligand: none).
Turning to “ACAUGUCUUGUAGGAUAUAGUUGACAUGAGGAUCACCCAUGUUGAUUCAUGUCUAUCGAAAGGGACUAGAAGGACGAGAAUAUG [Ex NG2 #16] (Eterna round: R96, puzzle: Exclusion NG 2)”, the “apparent KD of MS2 coat protein” value (input ligand: FMN 200 uM) stood at 87.5 nM, the “apparent KD of MS2 coat protein” value under setting [2] stood at 20 nM and the “apparent KD of MS2 coat protein” value (input ligand: none) is 32.2 nM.
With “AAACUCUAAGUCAGGAUAUGGCAACGCUAAGGCGACCAGAAGGGACUUGAGGAUCACCCAAGUACCGCUUGUGG [Orardi] (Eterna round: R97, puzzle: Brourd's mod of Exclusion 4)”, the “apparent KD of MS2 coat protein” value (input ligand: FMN 200 uM) worked out at 409 nM and the “apparent KD of MS2 coat protein” value (input ligand: none) came out at 42.7 nM.
Regarding “UACCUGAGGCUUUGCUUUAGGUAUACAUGAGGAUCACCCAUGUAGGAUAUGGUAGGCUUUGCUUACCAGAAGGACAUGUUAAUU [JL ENG3 1.09] (Eterna round: R96, puzzle: Exclusion NG 3)”, the “apparent KD of MS2 coat protein” value reads like this: (input ligand: FMN 200 uM) 141 nM; under setting [2], 30.9 nM; (input ligand: none) 29 nM.
Regarding “CCGGUAGCAUAGGAUAUCGCCAACGUUGUAGUACGAGAAGGGUGCACAUGAGGAUCACCCAUGUUUCCUGGCCG [Eternabot (L2) Solution 63] (Eterna round: R97, puzzle: Exclusion 6)”, the “apparent KD of MS2 coat protein” value (input ligand: FMN 200 uM) came to 107 nM and the “apparent KD of MS2 coat protein” value (input ligand: none) was 131 nM.
As to “GUAUAACAUGUAGGAUAUGCAUGGCAAAGCUAUGCAGAAGGACAUGAGGAUCACCCAUGUAAUAGCGUCUGCGUACAGAUGCAA [Mat - Exclusion NG 1 - Mod of JL - D92] (Eterna round: R96, puzzle: Exclusion NG 1)”, the “apparent KD of MS2 coat protein” value by setting is: (input ligand: FMN 200 uM) 165 nM; under setting [2], 31 nM; (input ligand: none) 33.9 nM.
As to “AGCGCCAUCGUGAGAUGGCGUAUUACAUGAGGAUCACCCAUGUAGGAUAUCGAUUGCUUUGCAGUCGAGAAGGACAUGUUUUAG [JL ENG3 3.80 Mod E] (Eterna round: R96, puzzle: Exclusion NG 3)”, the “apparent KD of MS2 coat protein” value is, setting by setting: (input ligand: FMN 200 uM) 200 nM; under setting [2], 69.4 nM; (input ligand: none) 74.3 nM.
For the sequence “UCAACCAGAGGAUAUGCGCAUAGAUCAGACUUUGUUUCUGAACAUGAGGAUCACCCAUGUAGAAGGCUGUAACC [Ex2 #78] (Eterna round: R97, puzzle: Exclusion 2)”, the “apparent KD of MS2 coat protein” value amounted to 28.5 nM (input ligand: FMN 200 uM) and 27.1 nM (input ligand: none).
“CCUCGCAGGCAAGGAUAUCCUACAUUGUUCUGGCCCGGGCAUGCUACAUGAGGAUCACCCAUGUGGGAGAAGGUGCGCCACGGC [Design 31] (Eterna round: R96, puzzle: Exclusion NG 2)”: the “apparent KD of MS2 coat protein” value is 48.3 nM (input ligand: FMN 200 uM), 28.1 nM under setting [2] and 42.2 nM (input ligand: none).
“AGUAGUUGUUUCCGUUCUUACAUGAGGAUCACCCAUGUUUCUUGUCGUGCUCGCGUUGCUCGUCAGACUACCAGAUG [salish99_TOv1_r3_060] (puzzle: Sensor v3, turn-off variant 1)”: the “apparent KD of MS2 coat protein” value by setting is: under setting [3], 51.1 nM; under setting [1], 57.8 nM; under setting [4], 75.8 nM.
As to “ACAAGCUUUUUGUUCGUCUUAUAAAAUCCUAAGAGGAAAACAUGAGGAUCACCCAUGUAACAAAGACGGACUCAUGU [Sesor Array 12 - Jieux - Sensor v3, turn-off variant 2] (Eterna round: R96, puzzle: Sensor v3, turn-off variant 2)”, the “apparent KD of MS2 coat protein” value is, setting by setting: (input ligand: FMN 200 uM) 11.5 nM; under setting [2], 99.1 nM.
Take “CUCAUGUCAGGAUAUUAAGUCCGUAGCCUAUGGCUGCAACAUGAGAAGGGACAUGAGGAUCACCCAUGUCGGGA [Edceleon] (puzzle: Exclusion 4)”: under setting [1], the “apparent KD of MS2 coat protein” value is 34.3 nM.
Still for that read-out and setting: for “AAUAAGCAAGGAUAUACGACGCAGAGCGUCAGUGGGCGAUGACAUGAGGAUCACCCAUGUAGAAGGUGCACAUC [Veisbebi] (puzzle: Exclusion 2)” the value was 81.5 nM; for “GGUGCGUUUGUGAGGAUAUGCUGGUCCUUGGUUCGGCAGAAGGCACAUGAGGAUCACCCAUGUGGUGUCGUCCC [salish99_Bmod_Ex4_046] (puzzle: Brourd's mod of Exclusion 4)”, 32 nM.
On the same count and under the same terms, for “CCUCCACAUGAGGAUCACCCAUGUCAGGAUAUCGUGUGUGCGUUUUCGGUCUUUCGCGCGAGAAGGGACGACUG (puzzle: Exclusion 1)” the value was 27.5 nM.
With “GCGGAGUCAGGAUAUUGAAUUUAACGUACCAAUAAGGUACGCGAGAAGGGACAUGAGGAUCACCCAUGUACCGC [Mat - Exclusion 4 - Eli Mod - D35] (Eterna round: R97, puzzle: Exclusion 4)”, the “apparent KD of MS2 coat protein” value (input ligand: FMN 200 uM) worked out at 16.5 nM and the “apparent KD of MS2 coat protein” value (input ligand: none) amounted to 17.3 nM.
Turning to “AAAAAGUCAGGAUAUGCGAAGGCGUCUGAUAGACGAGGCUAGCAGAAGGGACAUGAGGAUCACCCAUGUAAAGA [Mat - Exclusion 4 - D82] (Eterna round: R96, puzzle: Exclusion 4)”, under setting [2], the “apparent KD of MS2 coat protein” value amounted to 19.4 nM.
On to “GUGUAGCAAGGAUAUACAUGAGGAUCACCCAUGUGAAUAAGAUAGAAUAAGAUAAAGUGUAGAAGGUGCAGUGU [Excluse me!!! 8 - Jieux - Exclusion 3] (Eterna round: R96, puzzle: Exclusion 3)”, for which the “apparent KD of MS2 coat protein” value by setting is: (input ligand: FMN 200 uM) 44.9 nM; under setting [2], 31.5 nM; (input ligand: none) 41.6 nM.
